Test results from article PMC4351158 (Structure (London, England : 1993), 2015).
Where no end group is shown, it is not given here. fluorescein = fluorescein, a fluorescent label on the peptide N-terminus

What was measured:
Assay in all cases: fluorescence polarisation
DegS D221A/H198P = molecular target: T1, DegS D221A/H198P (E. coli, UniProt P0AEE3 27-355, D221A | H198P)
T1 sequence (looked up): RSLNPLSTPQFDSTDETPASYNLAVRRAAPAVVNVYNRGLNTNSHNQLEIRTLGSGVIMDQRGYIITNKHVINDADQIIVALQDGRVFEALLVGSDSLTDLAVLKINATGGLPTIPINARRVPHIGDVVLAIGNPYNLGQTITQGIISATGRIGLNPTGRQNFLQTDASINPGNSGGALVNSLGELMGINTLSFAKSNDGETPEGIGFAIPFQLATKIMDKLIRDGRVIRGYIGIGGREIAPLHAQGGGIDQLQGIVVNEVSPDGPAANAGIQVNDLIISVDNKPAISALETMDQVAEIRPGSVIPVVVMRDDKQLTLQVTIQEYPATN

DegS H198P/P229A = molecular target: T2, DegS H198P/P229A (E. coli, UniProt P0AEE3 27-355, H198P | P229A)
T2 sequence (looked up): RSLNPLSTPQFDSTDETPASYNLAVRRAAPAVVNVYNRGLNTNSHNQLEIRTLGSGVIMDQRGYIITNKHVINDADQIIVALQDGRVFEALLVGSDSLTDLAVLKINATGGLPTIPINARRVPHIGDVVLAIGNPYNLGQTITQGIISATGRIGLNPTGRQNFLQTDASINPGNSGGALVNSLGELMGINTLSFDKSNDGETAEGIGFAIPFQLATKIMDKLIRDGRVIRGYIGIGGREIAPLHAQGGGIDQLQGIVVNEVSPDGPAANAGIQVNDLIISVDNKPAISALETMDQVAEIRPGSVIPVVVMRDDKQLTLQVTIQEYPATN

DegS F220A = molecular target: T3, DegS F220A (E. coli, UniProt P0AEE3 27-355, F220A)
T3 sequence (looked up): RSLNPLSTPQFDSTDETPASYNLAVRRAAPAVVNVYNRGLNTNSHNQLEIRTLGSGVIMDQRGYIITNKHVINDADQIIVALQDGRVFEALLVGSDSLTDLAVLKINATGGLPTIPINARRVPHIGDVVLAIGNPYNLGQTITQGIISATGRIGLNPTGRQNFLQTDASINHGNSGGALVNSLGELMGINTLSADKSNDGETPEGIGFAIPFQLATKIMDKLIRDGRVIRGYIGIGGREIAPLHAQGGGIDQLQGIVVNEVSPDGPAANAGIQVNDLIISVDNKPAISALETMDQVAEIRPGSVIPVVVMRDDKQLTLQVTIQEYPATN

DegS Q191A/H198P = molecular target: T4, DegS Q191A/H198P (E. coli, UniProt P0AEE3 27-355, Q191A | H198P)
T4 sequence (looked up): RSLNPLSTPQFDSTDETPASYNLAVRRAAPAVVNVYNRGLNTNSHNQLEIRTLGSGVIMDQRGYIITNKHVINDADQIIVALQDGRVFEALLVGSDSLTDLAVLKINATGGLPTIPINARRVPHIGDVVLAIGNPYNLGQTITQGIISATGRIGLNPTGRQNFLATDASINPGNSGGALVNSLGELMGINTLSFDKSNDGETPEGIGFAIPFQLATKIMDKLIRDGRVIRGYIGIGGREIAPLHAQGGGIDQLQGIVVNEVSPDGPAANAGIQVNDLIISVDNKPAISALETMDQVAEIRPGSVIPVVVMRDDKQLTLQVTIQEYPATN

DegS T167V = molecular target: T5, DegS T167V (E. coli, UniProt P0AEE3 27-355, T167V)
T5 sequence (looked up): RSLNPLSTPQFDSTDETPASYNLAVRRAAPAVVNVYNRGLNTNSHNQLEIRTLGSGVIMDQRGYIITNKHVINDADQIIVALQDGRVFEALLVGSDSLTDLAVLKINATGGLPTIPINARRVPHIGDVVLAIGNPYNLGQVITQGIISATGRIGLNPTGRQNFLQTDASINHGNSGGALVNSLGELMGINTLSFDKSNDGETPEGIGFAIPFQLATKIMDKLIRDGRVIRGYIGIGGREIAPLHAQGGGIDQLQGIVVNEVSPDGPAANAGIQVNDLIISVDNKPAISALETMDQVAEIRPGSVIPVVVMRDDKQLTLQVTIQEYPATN

B1: fluorescent OMP peptide fluorescein-DNRDGNVYYF (peptide)
peptide: fluorescein-DNRDGNVYYF
- Kd (DegS D221A/H198P): 1700 ± 100 nM
- Kd (DegS H198P/P229A): 2000 ± 100 nM
- Kd (DegS F220A): 2100 ± 100 nM
- Kd (DegS Q191A/H198P): 1400 ± 100 nM
- Kd (DegS T167V): 1800 ± 100 nM
